Laboratory results from article PMC3903617 (PLoS ONE, 2014).
Positions count from the first letter of the chain named. Names may count otherwise.

Key:
Settings in all cases: both partners purified
[1] = target: T1, monocyte chemo-attractant protein-1 (MCP-1) (Homo sapiens (Human)., UniProt P13500); test: SPR; temperature dependence of KD, van't Hoff approximation; MCP-1 immobilised, scFv injected
T1 construct: MCP-1 (monocyte chemo-attractant protein-1), chemokine; synthetic gene optimised for E. coli in pET26b; Probably the mature human chemokine, as in PDB 2BDN; also called monocyte chemotactic protein-1; antigen; source: E. coli Rosetta2 (DE3), purified (Ni-NTA, SEC)

[2] = target: T1, monocyte chemo-attractant protein-1 …; test: SPR; Biacore T200; MCP-1 immobilised on a CM5 chip by amine coupling (~220 RU), scFv injected at 30 µl/min; PBS with 0.005% Tween-20; 25°C; global fit, 1:1 Langmuir model; KD from koff/kon
[3] = target: T1, monocyte chemo-attractant protein-1 …; test: SPR; ionic strength series: MCP-1 immobilised, scFv injected; running buffer with 137 mM NaCl; 25°C
[4] = target: T1, monocyte chemo-attractant protein-1 …; test: SPR; ionic strength series: MCP-1 immobilised, scFv injected; running buffer with 500 mM NaCl; 25°C

B1: wild-type 11K2 scFv (scFv, V domains shown)
VH: EVQLQQSGAELVKAGASVKLSCPASGLNIKDTYMHWVKQRPEQGLEWIGRIDPANGNTKFDPKFQGKATITADTSSNTAYLQLSSLTSEDTAVYYCARGVFGFFDYWGQGTTLTVSS
VL: DIQMTQSSSSFSVSLGDRVTITCKATEDIYNRLAWYQQKPGSAPRLLISGATSLETGVPSRFSGSGSGKDYTLSITSLQTEDVATYYCQQFWSAPYTFGGGTKLEIK
notes: VH of antibody 11K2; also the variable domain of the heavy chain of the 11K2 Fab in PDB 2BDN; linker of the scFv; VL of antibody 11K2; also the variable domain of the light chain of the 11K2 Fab in PDB 2BDN; also called WT; scFv 11K2
- dH [1]: -7.3 kcal/mol
- Kd [2]: 0.8 nM
- koff [2]: 0.0001 s⁻¹
- kon [2]: 140000 M⁻¹ s⁻¹

B2: 11K2 scFv mutein L-N31R (scFv, V domains shown)
VH: B1 VH
VL: B1 VL with N31R
notes: PDB 2BDN heavy chain; PDB 2BDN light chain) with the stated change; also called L-D31R (printed once in the results)
- dH [1]: -25.6 kcal/mol
- Kd [3]: 0.36 nM
- kon [3]: 170000 M⁻¹ s⁻¹
- Kd [4]: 0.47 nM
- Kd [2]: 0.17 nM
- koff [2]: 2.2e-05 s⁻¹
- kon [2]: 130000 M⁻¹ s⁻¹

B3: 11K2 scFv mutein H-L27K (scFv, V domains shown)
VH: B1 VH with L27K
VL: B1 VL
notes: PDB 2BDN heavy chain) with the stated change; PDB 2BDN light chain)
- Kd [2]: 3.5 nM
- koff [2]: 0.00039 s⁻¹
- kon [2]: 110000 M⁻¹ s⁻¹

B4: 11K2 scFv mutein H-L27R (scFv, V domains shown)
VH: B1 VH with L27R
VL: B1 VL
notes: as for B3
- Kd [2]: 2.4 nM
- koff [2]: 0.00033 s⁻¹
- kon [2]: 140000 M⁻¹ s⁻¹

B5: 11K2 scFv mutein L-Y30K (scFv, V domains shown)
VH: B1 VH
VL: B1 VL with Y30K
notes: PDB 2BDN heavy chain; PDB 2BDN light chain) with the stated change
- Kd [2]: 2.5 nM
- koff [2]: 0.00031 s⁻¹
- kon [2]: 130000 M⁻¹ s⁻¹

B6: 11K2 scFv mutein L-S53E (scFv, V domains shown)
VH: B1 VH
VL: B1 VL with S53E
notes: as for B5
- dH [1]: -15.1 kcal/mol
- Kd [2]: 0.19 nM
- koff [2]: 1.4e-05 s⁻¹
- kon [2]: 73000 M⁻¹ s⁻¹

B7: 11K2 scFv mutein L-N31K (scFv, V domains shown)
VH: B1 VH
VL: B1 VL with N31K
notes: PDB 2BDN heavy chain; PDB 2BDN light chain) with the stated change; also called L-D31K (printed once in the results)
- Kd [2]: 290 nM
- koff [2]: 0.098 s⁻¹
- kon [2]: 340000 M⁻¹ s⁻¹

B8: 11K2 scFv mutein H-D31E (scFv, V domains shown)
VH: B1 VH with D31E
VL: B1 VL
notes: as for B3
- Kd [2]: 5 nM
- koff [2]: 0.00015 s⁻¹
- kon [2]: 30000 M⁻¹ s⁻¹

B9: 11K2 scFv mutein L-T56E (scFv, V domains shown)
VH: B1 VH
VL: B1 VL with T56E
notes: as for B5
- dH [1]: -14.5 kcal/mol
- Kd [2]: 0.25 nM
- koff [2]: 2.6e-05 s⁻¹
- kon [2]: 100000 M⁻¹ s⁻¹

B10: 11K2 scFv mutein L-S53D (scFv, V domains shown)
VH: B1 VH
VL: B1 VL with S53D
notes: as for B5
- dH [1]: -13.3 kcal/mol
- Kd [2]: 0.61 nM
- koff [2]: 5.5e-05 s⁻¹
- kon [2]: 90000 M⁻¹ s⁻¹

B11: 11K2 scFv mutein L-T56D (scFv, V domains shown)
VH: B1 VH
VL: B1 VL with T56D
notes: as for B5
- dH [1]: -11.7 kcal/mol
- Kd [2]: 0.39 nM
- koff [2]: 8.6e-05 s⁻¹
- kon [2]: 220000 M⁻¹ s⁻¹

B12: 11K2 scFv mutein H-N28Q (scFv, V domains shown)
VH: B1 VH with N28Q
VL: B1 VL
notes: as for B3
- Kd [2]: 8.5 nM
- koff [2]: 0.0019 s⁻¹
- kon [2]: 220000 M⁻¹ s⁻¹
